Data from the PETadex activity labels (doi:10.1021/ma200949p).
Residue numbers refer to the chain shown, from its start.

B1: unnamed (protein)
chain: MAVMTPRRERSSLLSRALQVTAAAATALVTAVSLAAPAHAANPYERGPNPTDALLEASSGPFSVSEENVSRLSASGFGGGTIYYPRENNTYGAVAISPGYTGTEASIAWLGERIASHGFVVITIDTITTLDQPDSRAEQLNAALNHMINRASSTVRSRIDSSRLAVMGHSMGGGGTLRLASQRPDLKAAIPLTPWHLNKNWSSVTVPTLIIGADLDTIAPVATHAKPFYNSLPSSISKAYLELDGATHFAPNIPNKIIGKYSVAWLKRFVDNDTRYTQFLCPGPRDGLFGEVEEYRSTCPF
B2: unnamed (protein)
chain: MANPYERGPNPTDALLEARSGPFSVSEERASRFGADGFGGGTIYYPRENNTYGAVAISPGYTGTQASVAWLGERIASHGFVVITIDTNTTLDQPDSRARQLNAALDYMINDASSAVRSRIDSSRLAVMGHSMGGGGTLRLASQRPDLKAAIPLTPWHLNKNWSSVRVPTLIIGADLDTIAPVLTHARPFYNSLPTSISKAYLELDGATHFAPNIPNKIIGKYSVAWLKRFVDNDTRYTQFLCPGPRDGLFGEVEEYRSTCPF
B3: unnamed (protein)
chain: MANPYERGPNPTDALLEARSGPFSVSEENVSRLSASGFGGGTIYYPRENNTYGAVAISPGYTGTEASIAWLGERIASHGFVVITIDTITTLDQPDSRAEQLNAALNHMINRASSTVRSRIDSSRLAVMGHSMGGGGSLRLASQRPDLKAAIPLTPWHLNKNWSSVRVPTLIIGADLDTIAPVLTHARPFYNSLPTSISKAYLELDGATHFAPNIPNKIIGKYSVAWLKRFVDNDTRYTQFLCPGPRDGLFGEVEEYRSTCPF
B4: unnamed (protein)
chain: B3 chain with R19S, S137T, R166T, L183A, R187K, T195S

Assays:
[1] = substrate: pNPB; test: Proxy for plastic degradation [Km]; details: pH 7
[2] = substrate: pNPB; test: Proxy for plastic degradation [kcat] (s⁻¹); details: pH 7
[3] = substrate: PET; test: Proxy for plastic degradation [Released monomer concentration (HPLC/LC-MS) (BA)]; details: pH 7
[4] = substrate: PET; test: Proxy for plastic degradation [Released monomer concentration (HPLC/LC-MS) (HEB)]; details: pH 7
[5] = substrate: MHET; test: Proxy for plastic degradation [Released monomer concentration (HPLC/LC-MS) (MHET)]; details: pH 7
[6] = substrate: PET; test: Proxy for plastic degradation [Released monomer concentration (HPLC/LC-MS) (MHET+BA, TA, HEB)]; details: pH 7
[7] = substrate: p-NP-C2; details: pH 7, 25 °C
[8] = substrate: p-NP-C4; details: pH 7, 25 °C
[9] = substrate: pNP-C2; test: Proxy for plastic degradation [Km]; details: pH 7
[10] = substrate: pNP-C2; test: Proxy for plastic degradation [kcat] (s⁻¹); details: pH 7
[11] = substrate: PET; test: Proxy for plastic degradation [Released monomer concentration (HPLC/LC-MS) (TPA)] (mmol/mol enzyme); details: pH 7
[12] = substrate: PET; test: Proxy for plastic degradation [Released monomer concentration (HPLC/LC-MS) (TPA+MHET+BA+HEB)] (mmol/mol enzyme); details: pH 7
[13] = substrate: PET; test: Proxy for plastic degradation [Released monomer concentration (HPLC/LC-MS) (BA (benzoic acid))] (mmol/mol enzyme); details: pH 7
[14] = substrate: PET; test: Proxy for plastic degradation [Released monomer concentration (HPLC/LC-MS) (HEB (2-hydroxyethyl benzoate))] (mmol/mol enzyme); details: pH 7
[15] = substrate: PET; test: Proxy for plastic degradation [Water contact angle]; details: pH 7
[16] = substrate: PET; test: Proxy for plastic degradation [Surface fluorescence after BrNP labelling]; details: pH 7; part of the chain shown

Protein	Proxy for plastic degradation [1]	Proxy for plastic degradation [2]	Km ([7]; part of the chain shown)	kcat ([7]; part of the chain shown)	kcat/Km ([7]; part of the chain shown)	Km ([8]; part of the chain shown)	kcat ([8]; part of the chain shown)	kcat/Km ([8]; part of the chain shown)	Proxy for plastic degradation ([9]; part of the chain shown)	Proxy for plastic degradation ([1]; part of the chain shown)	Proxy for plastic degradation ([10]; part of the chain shown)	Proxy for plastic degradation ([2]; part of the chain shown)	Proxy for plastic degradation ([3]; part of the chain shown)	Proxy for plastic degradation ([4]; part of the chain shown)	Proxy for plastic degradation ([5]; 50 °C, part of the chain shown)	Proxy for plastic degradation ([5]; part of the chain shown)	Proxy for plastic degradation ([6]; part of the chain shown)	Proxy for plastic degradation ([11]; part of the chain shown)	Proxy for plastic degradation ([12]; 2 h, part of the chain shown)	Proxy for plastic degradation ([13]; part of the chain shown)	also measured
B1	2100 µM	30.9	–	–	–	–	–	–	–	–	–	–	–	–	–	–	–	–	–	–	Proxy for plastic degradation [3]: 23 mmol/mol; Proxy for plastic degradation [4]: 22 mmol/mol; Proxy for plastic degradation [5]: 15 mmol/mol; Proxy for plastic degradation ([5]; 50 °C): 7 mmol/mol; Proxy for plastic degradation [6]: 49 mmol/mol
B2	–	–	200 µM	2.4 s⁻¹	12000 M⁻¹ s⁻¹	2130 µM	5.3 s⁻¹	2480 M⁻¹ s⁻¹	200 µM	2130 µM	2.4	5.3	28 mmol/mol	29 mmol/mol	13 mmol/mol	18 mmol/mol	76 mmol/mol	5	90	27.9	Proxy for plastic degradation ([14]; part of the chain shown): 28.6
B3	2100 µM	30.9	–	–	–	–	–	–	–	–	–	–	–	–	–	–	–	–	–	–	Km [7]: 167 µM; kcat [7]: 39.5 s⁻¹; kcat/Km [7]: 237000 M⁻¹ s⁻¹; Km [8]: 2100 µM; kcat [8]: 30.9 s⁻¹; kcat/Km [8]: 14700 M⁻¹ s⁻¹; Proxy for plastic degradation [9]: 167 µM; Proxy for plastic degradation [10]: 39.5; Proxy for plastic degradation [15]: 71.2 °; Proxy for plastic degradation [11]: 42; Proxy for plastic degradation ([12]; 2 h): 64; Proxy for plastic degradation ([12]; 24 h): 830; Proxy for plastic degradation ([12]; 72 h): 1820; Proxy for plastic degradation [13]: 22.7; Proxy for plastic degradation [14]: 23.4
B4	–	–	127 µM	212 s⁻¹	1.67e+06 M⁻¹ s⁻¹	1480 µM	195 s⁻¹	132000 M⁻¹ s⁻¹	127 µM	1480 µM	212	195	48 mmol/mol	32 mmol/mol	5 mmol/mol	25 mmol/mol	63 mmol/mol	56	119	48.9	Proxy for plastic degradation ([15]; part of the chain shown): 66.3 °; Proxy for plastic degradation [16]: 1540 AU; Proxy for plastic degradation ([14]; part of the chain shown): 32
